Stoichiometry N data for 1 substance are collected here from paper PMC2712671.

The target in the experiment is His6-tagged MogR_(1-162) (Listeria monocytogenes) (UniProt P0DJO8). The experiment is described as follows: crystal structure.

“His6-tagged MogR_(1-162) (from UniProt P0DJO8 1-162) (domain or fragment)” came in with a stoichiometry N of 2.

One may read the stoichiometry N as a count of units in the complex or per binding partner.
